Reference: the supplement of paper PMC9732359
± gives the uncertainty stated by the source.

Test: protein stability index of a GFP-peptide fusion (yeast GPS) (PSI 1-4); higher = more stable; sorted into four equal gates, so the index is relative within each strain
Outline: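 The protein stability index combines read frequencies across sorting gates, each weighted by its gate number and then summed. To obtain those frequencies, a pooled yeast library of GFP fusions to tiled 17-residue yeast protein peptides, on a plasmid also expressing Cherry, was grown to mid-log phase in leucine-free medium. The cells were sorted into four equal gates by GFP/Cherry ratio before plasmid amplification by PCR and Illumina sequencing.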

Sequence | protein stability index (doa10∆) | protein stability index (pdr5∆) | protein stability index (san1∆) | protein stability index (ubr1∆)
HASENISLSFSRPASYG [SIR4] | 2.53 ± 0.064 | 2.53 ± 0.044 | 2.74 ± 0.049 | 3.19 ± 0.045
ARDEILPLRLQFNEFIQ [PGD1] | 2.55 ± 0.083 | 3.01 ± 0.065 | 2.74 ± 0.078 | 2.79 ± 0.058
NHNGSALLIEVFTALLR [ITC1] | 1.68 ± 0.074 | 1.38 ± 0.055 | 1.47 ± 0.094 | 1.35 ± 0.053
TDDADDHINWEHIKQDY [NSL1] | 3.4 ± 0.1 | 3.4 ± 0.12 | 3.27 ± 0.13 | 3.4 ± 0.082
ISTGGFMSNDGPTLEKY [SNU114] | 2.22 ± 0.068 | 2.57 ± 0.065 | 2.31 ± 0.071 | 2.12 ± 0.053
LGILKKKRFDEFMAGFN [SMC4] | 2.15 ± 0.11 | 2.15 ± 0.13 | 1.88 ± 0.19 | 1.87 ± 0.078
VTIIEPKEEEPILAPSV [RPS3] | 3.09 ± 0.13 | 2.59 ± 0.22 | 3.01 ± 0.14 | 2.67 ± 0.13
VMNKNQETAISVAKLFK [RPT6] | 2.24 ± 0.19 | 1.72 ± 0.19 | – | –
ISVSSRSDREYPLLIRM [SRP14] | 2.56 ± 0.097 | 2.44 ± 0.1 | 1.94 ± 0.13 | 2.34 ± 0.072
RLGLIPLQSMDIEQLEY [RPB3] | 2.75 ± 0.067 | 2.92 ± 0.063 | 2.91 ± 0.088 | 2.72 ± 0.083
RFYQLGVDLKLKYSKRR [CSN12] | 1.26 ± 0.12 | 1.16 ± 0.1 | – | 1.15 ± 0.088
DGMDAAHIEKQSLDTIG [RPO21] | 3.36 ± 0.088 | 3.29 ± 0.095 | 3.24 ± 0.093 | 3.05 ± 0.083
ARLAILKERAKNISSQL [YGR119C/NUP57] | 2.24 ± 0.079 | 2.77 ± 0.069 | 2.51 ± 0.072 | 2.51 ± 0.052
TRAQYLAFAKLVHSEYL [SRP68] | 1.58 ± 0.08 | 1.87 ± 0.063 | 1.47 ± 0.094 | 1.79 ± 0.052
FIYGEDGMDAAHIEKQS [RPO21] | 3.31 ± 0.069 | 3.29 ± 0.084 | 3.38 ± 0.054 | 3.36 ± 0.043
IPLNRLSLDSDVKFPSN [SMC3] | 1.69 ± 0.059 | 1.92 ± 0.064 | 2.05 ± 0.11 | 1.99 ± 0.054
PKYIDELKTRDATNTSY [SWP82] | 2.68 ± 0.095 | 3.12 ± 0.072 | 2.58 ± 0.079 | 2.94 ± 0.05
YDVLHDVFTINPHQKDQ [YML103C/NUP188] | – | 2.15 ± 0.098 | 2.12 ± 0.13 | 2.61 ± 0.25
PEYAKVGDFLLQYANNA [SIN4] | 2.4 ± 0.085 | 2.55 ± 0.069 | 2.5 ± 0.066 | 1.97 ± 0.044
SGTFYRYNAKAIGSGSE [PUP2] | 3.15 ± 0.088 | 3.14 ± 0.09 | 3.37 ± 0.06 | 2.98 ± 0.073
MRAKWRKKRTRRLKRKR [RPL41A] | 3.47 ± 0.16 | 3.06 ± 0.13 | 3.34 ± 0.16 | 3.44 ± 0.15
RLYLKDQTNHIESDSIL [ECM29] | 2.8 ± 0.062 | 2.76 ± 0.06 | 2.96 ± 0.048 | 2.62 ± 0.035
PVNTGVLHVSAKGKSGV [RRP40] | 2.48 ± 0.1 | 2.1 ± 0.097 | 2.62 ± 0.14 | 2.64 ± 0.13
LELQVAQAFVELENSSP [RPS7A] | 3.15 ± 0.14 | 3.14 ± 0.15 | 2.92 ± 0.19 | 1.85 ± 0.11
STTEHINIDDLLYELTA [YJL039C/NUP192] | 2.82 ± 0.11 | 2.61 ± 0.092 | 2.43 ± 0.099 | 3.05 ± 0.053
GRQTVLIKDNSAMVTTA [SRB2] | – | 1.8 ± 0.28 | – | –

Sequence | protein stability index (doa10∆) | protein stability index (pdr5∆) | protein stability index (san1∆) | protein stability index (ubr1∆)
PCLSRSCTKCPQIVVPD [DIS3] | 2.42 ± 0.034 | 2.56 ± 0.031 | 2.63 ± 0.033 | 2.57 ± 0.03
GVRSNHLRSNILKDLIY [SMC1] | 2.47 ± 0.28 | 2.35 ± 0.16 | – | 2.82 ± 0.13
PQIRQEIEQLDQYIQKQ [YGL172W/NUP49] | 2.7 ± 0.061 | 2.76 ± 0.046 | 2.54 ± 0.054 | 2.78 ± 0.049
SVNKNKRQAYAVSEKAG [RPL4A] | – | 1.69 ± 0.17 | – | 3.29 ± 0.13
YNNRSLLDFNTALKQYE [RPN6] | 3.32 ± 0.097 | 3.04 ± 0.084 | 3.15 ± 0.067 | 3.13 ± 0.099
NVDQTKTQCPNYDTCGG [RPC11] | 3.48 ± 0.13 | 3.15 ± 0.18 | 3.06 ± 0.08 | 3.21 ± 0.093
LSQSSSYLETLTALGKE [MED2] | 3.12 ± 0.097 | 3.04 ± 0.099 | 2.66 ± 0.084 | 2.44 ± 0.07
LITVMEKSPDPTIRSNA [YCS4] | 2.35 ± 0.052 | 2.48 ± 0.051 | 2.34 ± 0.053 | 2.57 ± 0.038
PRGVLLYGPPGTGKTML [RPT3] | 3.07 ± 0.089 | 2.57 ± 0.11 | 2.9 ± 0.081 | 2.72 ± 0.074
TEDQKVTTNINWRSFNA [SRP68] | 3.13 ± 0.097 | 3.16 ± 0.074 | 3.1 ± 0.058 | 3.21 ± 0.049
RRRTYRAHGRINKYESS [RPL17A] | 1.87 ± 0.2 | 2.37 ± 0.094 | 1.9 ± 0.13 | 2.05 ± 0.065
HVEKERASTELSQSRIK [YIL149C/MLP2] | 3.01 ± 0.089 | 2.93 ± 0.066 | 3.12 ± 0.095 | 3.1 ± 0.074
HTGKKLMAQIFFGPTYY [RPB2] | 2.64 ± 0.055 | 2.07 ± 0.043 | 1.97 ± 0.057 | 1.81 ± 0.029
NYEDVGRFLRVPKEGLF [BRR2] | 3.42 ± 0.076 | 3.5 ± 0.11 | 3.42 ± 0.078 | 3.49 ± 0.064
STTQEILEFITAAQVAN [RPC34] | 2.65 ± 0.1 | 1.71 ± 0.056 | 1.9 ± 0.088 | 1.19 ± 0.048
NKLRQQAIAKNNPQVVN [SNF5] | 1.54 ± 0.035 | 1.94 ± 0.042 | 1.81 ± 0.049 | 1.65 ± 0.03
KKLEITSDGALSVMCGC [RPR2] | 2.63 ± 0.047 | 2.82 ± 0.054 | 2.8 ± 0.043 | 2.933 ± 0.029
DEANIEIDPLTGMPISN [BRN1] | – | 2.65 ± 0.25 | – | 2.42 ± 0.27
YHSAGGRDKHALSLLYH [SSN3] | 3.12 ± 0.082 | 3.02 ± 0.066 | 3.19 ± 0.059 | 3.32 ± 0.066
DEATVPNTRDAESEAIT [SWI3] | 3.09 ± 0.077 | 3.15 ± 0.06 | 3.18 ± 0.066 | 3.23 ± 0.052
KDQYVPEVSALDLSRSN [RPS17A] | 2.16 ± 0.14 | 2.2 ± 0.1 | 2.02 ± 0.12 | 2.2 ± 0.065
VYSVDPLEKITDAYLDQ [PRP8] | 3.33 ± 0.17 | 3.11 ± 0.15 | 2.98 ± 0.1 | 3.15 ± 0.15
TTSERVSNENKKNIDYQ [RRI1] | 2.98 ± 0.083 | 3.03 ± 0.09 | 3.13 ± 0.085 | 3.05 ± 0.18
RDLSEASVYPEYALPKT [RPS26A] | 3.11 ± 0.078 | 3.01 ± 0.067 | 3.16 ± 0.045 | 3.09 ± 0.034
LRSRSFKSTESNISDEK [YMR129W/POM152] | – | – | 2.88 ± 0.27 | –
